Data as given in article PMC4751086, “Structural Study of the HD-PTP Bro1 Domain in a Complex with the Core Region of STAM2, a Subunit of ESCRT-0” (PLoS ONE, 2016).

T1: HD-PTP(1–361) (human, UniProt Q9H3S7 1-361)
T1 construct: also called HD-PTP Bro1 domain; PTPN23; source: E. coli BL21(DE3) RIL, purified (Ni-NTA, TEV protease, gel filtration); not shown: (His)6, N-terminal, cleaved
T1 sequence (looked up): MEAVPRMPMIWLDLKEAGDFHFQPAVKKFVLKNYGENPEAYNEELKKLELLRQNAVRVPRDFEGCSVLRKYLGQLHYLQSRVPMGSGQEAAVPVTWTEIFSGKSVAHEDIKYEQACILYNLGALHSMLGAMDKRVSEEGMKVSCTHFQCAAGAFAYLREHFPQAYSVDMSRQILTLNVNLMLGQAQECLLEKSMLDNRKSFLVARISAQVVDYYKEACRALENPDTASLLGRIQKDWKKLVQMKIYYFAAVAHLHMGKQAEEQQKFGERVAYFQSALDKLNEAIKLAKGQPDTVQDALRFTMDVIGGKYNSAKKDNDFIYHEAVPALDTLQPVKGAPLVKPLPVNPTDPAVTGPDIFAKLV

T2: HD-PTP(1–361;T145K) (human, UniProt Q9H3S7 1-361, T145K)
T2 construct: source: E. coli BL21(DE3) RIL, purified (Ni-NTA, gel filtration)
T2 sequence (looked up): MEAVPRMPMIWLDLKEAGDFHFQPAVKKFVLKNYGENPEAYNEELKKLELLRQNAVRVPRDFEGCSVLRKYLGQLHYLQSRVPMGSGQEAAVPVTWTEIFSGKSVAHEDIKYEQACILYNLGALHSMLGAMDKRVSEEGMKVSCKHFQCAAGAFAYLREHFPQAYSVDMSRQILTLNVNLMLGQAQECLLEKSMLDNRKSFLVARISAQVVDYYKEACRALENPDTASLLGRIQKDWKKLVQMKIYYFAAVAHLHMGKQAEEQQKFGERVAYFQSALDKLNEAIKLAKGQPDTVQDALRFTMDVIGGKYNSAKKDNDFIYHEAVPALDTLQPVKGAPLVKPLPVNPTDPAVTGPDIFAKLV

T3: HD-PTP(1–361;T145R) (human, UniProt Q9H3S7 1-361, T145R)
T3 construct: source: E. coli BL21(DE3) RIL, purified (Ni-NTA, gel filtration)
T3 sequence (looked up): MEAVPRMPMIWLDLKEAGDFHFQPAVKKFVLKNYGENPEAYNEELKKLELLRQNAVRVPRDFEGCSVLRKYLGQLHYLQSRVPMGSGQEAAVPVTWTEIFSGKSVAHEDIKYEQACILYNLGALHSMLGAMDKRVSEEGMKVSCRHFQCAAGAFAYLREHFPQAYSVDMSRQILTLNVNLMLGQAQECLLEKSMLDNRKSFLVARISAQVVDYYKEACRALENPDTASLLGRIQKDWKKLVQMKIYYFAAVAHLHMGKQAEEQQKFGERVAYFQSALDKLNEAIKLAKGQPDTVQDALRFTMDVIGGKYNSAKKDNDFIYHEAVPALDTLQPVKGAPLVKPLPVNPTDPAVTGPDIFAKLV

T4: HD-PTP(1–361) with T145A substitution (human, UniProt Q9H3S7 1-361, T145A)
T4 construct: source: E. coli BL21(DE3) RIL, purified (Ni-NTA, gel filtration)
T4 sequence (looked up): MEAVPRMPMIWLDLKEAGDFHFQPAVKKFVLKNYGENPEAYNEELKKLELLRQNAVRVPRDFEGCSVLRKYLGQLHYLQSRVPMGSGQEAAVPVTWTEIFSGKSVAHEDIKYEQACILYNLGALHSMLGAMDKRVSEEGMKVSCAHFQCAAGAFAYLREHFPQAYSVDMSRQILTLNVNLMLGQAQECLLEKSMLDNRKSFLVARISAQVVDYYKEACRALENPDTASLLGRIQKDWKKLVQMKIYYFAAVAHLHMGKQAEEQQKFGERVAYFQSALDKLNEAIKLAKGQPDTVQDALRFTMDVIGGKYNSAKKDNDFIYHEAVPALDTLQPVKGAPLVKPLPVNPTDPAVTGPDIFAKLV


What was measured:
Conditions in all cases: both partners purified
HD-PTP(1–361) [1] = molecular target: T1, HD-PTP(1–361); assay: SEC; Superose 6 10/300 GL gel filtration column; mixture of HD-PTP(1–361) and STAM2 fragment; peak fractions analysed by SDS-PAGE and Coomassie staining
HD-PTP(1–361) [2] = molecular target: T1, HD-PTP(1–361); assay: ITC; 0.5 mM peptide titrated into 50 μM protein; iTC200; 2°C as printed; 20 mM Tris-HCl (pH 7.5), 100 mM NaCl
HD-PTP(1–361;T145K) = molecular target: T2, HD-PTP(1–361;T145K); assay: as above
HD-PTP(1–361;T145R) = molecular target: T3, HD-PTP(1–361;T145R); assay: as above
[3] = molecular target: T4, HD-PTP(1–361) with T145A substitution; assay: as above

Binder	binding result (HD-PTP(1–361) [1])	Kd (HD-PTP(1–361) [2]) [µM]	Kd (HD-PTP(1–361;T145K)) [µM]	Kd (HD-PTP(1–361;T145R)) [µM]	Kd [3] [µM]
STAM2(260–370) (domain or fragment, STAM2, human, core region, residues 260–370; also called STAM2 core region containing residues 260–370; signal-transducing adaptor molecule 2; source: E. coli BL21(DE3) RIL, purified (Ni-NTA, gel filtration)) not shown	binds				
KEEEDDDMKELENWAGSM (peptide, UniProt Q9H444 207-224, looked up, CHMP4B, residues 207–224 (18-mer; the polypeptide terminates with Met224); also called CHMP4B peptide of 18-mer (residues 207–224); charged multivesicular body protein 4B; source: synthetic peptide, bought: Peptron (Korea)) [CHMP4B(207–224)]		< 8	< 8	< 8	< 8
STAM2(311–370) (domain or fragment, source: E. coli BL21(DE3) RIL, purified (Ni-NTA, gel filtration)) not shown	binds				
